In paper PMC10998907 one finds stoichiometry N data, which are given here for two substances.

Test [1] deals with NiV-RBP ectodomain (NiV attachment glycoprotein ectodomain), homotetramer (Nipah virus) (UniProt Q9IH62). The test can be described thus: negative-stain EM.
Test [2] addresses NiV-RBP ectodomain homotetramer (Nipah virus). As to the kind of experiment: cryo-EM structure.

As usually defined, the stoichiometry N is the number of molecules, sites or subunits per partner or assembly. In test [1], “NiV-RBP ectodomain (NiV attachment glycoprotein ectodomain), homotetramer (from UniProt Q9IH62 1-602) (domain or fragment)” came in with a stoichiometry N of 4.

“NiV-RBP ectodomain homotetramer (domain or fragment)” had a stoichiometry N in test [2] of 4.
